Source: US20090130692A1

Biological target: bovine pancreatic trypsin (bovine) (UniProt P00760)
Test: inhibition of bovine trypsin, substrate Boc-Leu-Gly-Arg-pNA, tight-binding fit (Morrison); apparent Ki (Kiapp)

Sequence of bovine pancreatic trypsin (bovine) (P00760 24-246): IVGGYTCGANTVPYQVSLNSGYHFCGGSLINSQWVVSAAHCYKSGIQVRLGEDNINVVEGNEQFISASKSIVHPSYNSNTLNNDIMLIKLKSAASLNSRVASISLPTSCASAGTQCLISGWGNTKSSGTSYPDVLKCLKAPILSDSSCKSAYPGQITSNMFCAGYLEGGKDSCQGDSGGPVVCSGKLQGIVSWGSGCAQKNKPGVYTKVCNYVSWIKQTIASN

| Ki [nM] | Substance |
| --- | --- |
| 9 | barnase′-EETI-II fusion protein (from UniProt P00648 48-157) |
| 71 | barnase′-McoEeTI fusion protein (from UniProt P00648 48-157) |
